In patent US20190023739A1 (TOKUSHIMA UNIVERSITY, published 2019):

Target: T1, His-tagged recombinant PHB2 (UniProt Q99623 1-299, limits assumed)
T1 construct: also called prohibitin 2; REA; not shown: His tag
Assay: surface plasmon resonance (BiAcore) interaction analysis

T1 sequence (Q99623 whole entry): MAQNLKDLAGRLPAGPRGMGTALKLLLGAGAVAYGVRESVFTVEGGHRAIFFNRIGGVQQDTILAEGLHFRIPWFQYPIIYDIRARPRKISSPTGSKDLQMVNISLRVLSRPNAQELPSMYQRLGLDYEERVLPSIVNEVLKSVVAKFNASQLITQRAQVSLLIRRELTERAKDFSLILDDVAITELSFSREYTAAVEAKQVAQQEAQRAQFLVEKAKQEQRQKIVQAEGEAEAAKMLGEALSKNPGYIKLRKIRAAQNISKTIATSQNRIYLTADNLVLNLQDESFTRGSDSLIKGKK

- Kd: 12.8 µM
B1: 11R-ERAP (11R-GGG-QMLSDLTLQLRQR) (peptide)
peptide: RRRRRRRRRRRGGGQMLSDLTLQLRQR
notes: Unstapled control peptide, synthesized as in Yoshimaru et al. 2013; also called dominant negative peptide
